Test results published in PMC5207133.

Assays:
[1] = biological target: XRCC4-DNA ligase IV (X4L4) complex (human) (UniProt Q13426)
[2] = biological target: Ku70/80 heterodimer (human (endogenous in HeLa)) (UniProt P12956)
Chain of Ku70/80 heterodimer (human (endogenous in HeLa)) (P12956 whole entry, chain 1 of 2): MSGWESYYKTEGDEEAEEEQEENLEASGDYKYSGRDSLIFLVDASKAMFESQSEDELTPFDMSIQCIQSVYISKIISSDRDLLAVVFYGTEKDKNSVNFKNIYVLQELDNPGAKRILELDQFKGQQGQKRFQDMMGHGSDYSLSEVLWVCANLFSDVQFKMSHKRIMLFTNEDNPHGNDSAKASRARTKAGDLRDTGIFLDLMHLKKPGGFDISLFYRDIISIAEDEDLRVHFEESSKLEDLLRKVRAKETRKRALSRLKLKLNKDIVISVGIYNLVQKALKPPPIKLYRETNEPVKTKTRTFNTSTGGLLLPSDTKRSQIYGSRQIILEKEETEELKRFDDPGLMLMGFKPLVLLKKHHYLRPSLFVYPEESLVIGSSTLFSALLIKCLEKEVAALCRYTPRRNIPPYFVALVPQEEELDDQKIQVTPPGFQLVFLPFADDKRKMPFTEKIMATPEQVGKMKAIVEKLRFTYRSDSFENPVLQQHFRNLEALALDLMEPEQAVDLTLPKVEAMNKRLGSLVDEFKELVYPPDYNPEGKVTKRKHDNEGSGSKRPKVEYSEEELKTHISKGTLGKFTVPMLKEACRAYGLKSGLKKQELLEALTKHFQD
Chain of Ku70/80 heterodimer (human (endogenous in HeLa)) (P13010 whole entry, chain 2 of 2, further chain): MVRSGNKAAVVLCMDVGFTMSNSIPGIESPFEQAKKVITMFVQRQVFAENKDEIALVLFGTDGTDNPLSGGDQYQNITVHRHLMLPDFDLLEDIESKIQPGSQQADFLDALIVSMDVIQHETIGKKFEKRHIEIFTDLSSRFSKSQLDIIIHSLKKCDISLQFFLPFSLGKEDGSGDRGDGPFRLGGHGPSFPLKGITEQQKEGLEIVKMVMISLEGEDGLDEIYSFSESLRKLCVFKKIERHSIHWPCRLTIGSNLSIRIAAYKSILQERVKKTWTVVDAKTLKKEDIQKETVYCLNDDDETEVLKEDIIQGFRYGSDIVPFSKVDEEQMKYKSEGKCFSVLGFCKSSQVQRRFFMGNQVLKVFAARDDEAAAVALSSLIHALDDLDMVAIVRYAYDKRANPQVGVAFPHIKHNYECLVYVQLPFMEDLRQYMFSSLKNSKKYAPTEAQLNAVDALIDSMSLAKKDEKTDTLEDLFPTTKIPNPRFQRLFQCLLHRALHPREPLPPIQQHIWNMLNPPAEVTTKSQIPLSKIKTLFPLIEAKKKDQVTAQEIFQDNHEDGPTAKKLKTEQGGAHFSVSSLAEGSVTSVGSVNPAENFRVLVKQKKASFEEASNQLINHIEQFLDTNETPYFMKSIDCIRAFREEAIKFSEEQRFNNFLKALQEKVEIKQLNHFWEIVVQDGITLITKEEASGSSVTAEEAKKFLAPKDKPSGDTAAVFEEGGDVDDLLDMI

Chain of aprataxin and polynucleotide kinase/phosphatase-like factor (APLF), GST tag removed (Q8IW19 whole entry): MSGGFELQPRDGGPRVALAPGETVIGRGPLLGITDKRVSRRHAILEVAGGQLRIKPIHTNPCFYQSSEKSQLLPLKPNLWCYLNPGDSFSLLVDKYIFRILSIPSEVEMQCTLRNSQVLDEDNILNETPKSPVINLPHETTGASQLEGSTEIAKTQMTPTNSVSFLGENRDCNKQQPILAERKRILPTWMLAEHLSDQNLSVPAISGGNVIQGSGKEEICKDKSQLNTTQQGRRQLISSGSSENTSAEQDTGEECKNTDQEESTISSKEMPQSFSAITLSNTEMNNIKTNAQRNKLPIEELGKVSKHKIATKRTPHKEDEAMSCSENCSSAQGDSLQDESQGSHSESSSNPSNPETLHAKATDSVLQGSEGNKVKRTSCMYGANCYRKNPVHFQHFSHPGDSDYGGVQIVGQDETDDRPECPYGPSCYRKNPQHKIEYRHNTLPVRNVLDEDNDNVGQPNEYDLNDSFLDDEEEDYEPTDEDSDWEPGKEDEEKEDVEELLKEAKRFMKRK
Chain of XRCC4-DNA ligase IV (X4L4) complex (human) (Q13426 whole entry, chain 1 of 2): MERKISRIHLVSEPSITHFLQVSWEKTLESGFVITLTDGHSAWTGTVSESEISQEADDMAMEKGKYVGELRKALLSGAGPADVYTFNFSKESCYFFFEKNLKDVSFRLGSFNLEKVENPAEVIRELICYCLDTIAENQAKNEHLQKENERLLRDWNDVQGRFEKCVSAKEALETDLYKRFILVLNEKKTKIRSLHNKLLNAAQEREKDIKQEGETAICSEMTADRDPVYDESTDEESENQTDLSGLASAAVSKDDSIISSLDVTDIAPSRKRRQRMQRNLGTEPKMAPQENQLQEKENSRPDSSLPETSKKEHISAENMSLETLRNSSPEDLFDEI
Chain of XRCC4-DNA ligase IV (X4L4) complex (human) (P49917 whole entry, chain 2 of 2, further chain): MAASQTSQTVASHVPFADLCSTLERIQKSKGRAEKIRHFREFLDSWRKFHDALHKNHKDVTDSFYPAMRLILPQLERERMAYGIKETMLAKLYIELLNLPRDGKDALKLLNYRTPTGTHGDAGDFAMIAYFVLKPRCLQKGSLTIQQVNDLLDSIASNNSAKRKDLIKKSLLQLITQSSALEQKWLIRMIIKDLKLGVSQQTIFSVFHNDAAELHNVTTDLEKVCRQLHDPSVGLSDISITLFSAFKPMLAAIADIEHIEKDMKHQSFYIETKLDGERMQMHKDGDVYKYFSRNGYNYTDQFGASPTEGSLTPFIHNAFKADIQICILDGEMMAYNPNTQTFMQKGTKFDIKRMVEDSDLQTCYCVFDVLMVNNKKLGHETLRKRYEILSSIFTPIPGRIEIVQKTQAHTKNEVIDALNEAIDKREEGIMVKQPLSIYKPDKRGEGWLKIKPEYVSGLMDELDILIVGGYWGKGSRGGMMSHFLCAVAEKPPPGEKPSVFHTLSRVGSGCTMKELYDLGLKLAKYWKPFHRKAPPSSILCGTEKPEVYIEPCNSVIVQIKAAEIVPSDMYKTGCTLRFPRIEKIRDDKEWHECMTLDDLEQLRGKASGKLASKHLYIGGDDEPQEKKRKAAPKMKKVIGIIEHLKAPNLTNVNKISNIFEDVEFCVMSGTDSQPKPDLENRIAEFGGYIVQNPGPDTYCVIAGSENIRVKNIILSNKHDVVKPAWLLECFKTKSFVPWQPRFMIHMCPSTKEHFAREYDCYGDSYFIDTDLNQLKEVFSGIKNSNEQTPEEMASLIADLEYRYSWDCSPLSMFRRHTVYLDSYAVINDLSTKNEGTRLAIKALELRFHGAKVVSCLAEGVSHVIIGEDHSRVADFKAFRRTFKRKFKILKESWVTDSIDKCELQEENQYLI

stoichiometry N [1]: 1
stoichiometry N [2]: 1
Substance: aprataxin and polynucleotide kinase/phosphatase-like factor (APLF), GST tag removed (from UniProt Q8IW19 1-511) (natural protein)
